Earlier results on 1 substance are cited in article PMC9442343.

The target in the data set is IL-18 (Homo sapiens) (UniProt Q14116).
Sequence of IL-18 (Homo sapiens) (Q14116 37-193): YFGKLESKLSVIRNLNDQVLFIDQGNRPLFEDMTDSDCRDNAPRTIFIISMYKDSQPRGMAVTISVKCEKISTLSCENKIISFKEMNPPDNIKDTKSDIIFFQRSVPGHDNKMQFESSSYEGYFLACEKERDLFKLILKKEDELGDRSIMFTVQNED

Sequence of IL-18BP (O95998 31-194): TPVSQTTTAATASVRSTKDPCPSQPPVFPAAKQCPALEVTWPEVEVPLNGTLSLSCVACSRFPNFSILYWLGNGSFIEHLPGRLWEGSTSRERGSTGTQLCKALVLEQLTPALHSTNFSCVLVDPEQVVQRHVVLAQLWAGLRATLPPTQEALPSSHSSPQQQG

Take IL-18BP (from UniProt O95998): the Kd was 0.4 nM.

As a reminder, the Kd is the free concentration of one partner at which half of the binding sites on the other are occupied at equilibrium, for simple one-to-one binding.
